Laboratory results as given in publication PMC13334617.
“And” between values parts separate entries of the source, which are not always exact repeats. Identical values can stand only once.

B1: CaM fused to the V9A nanobody at its N-terminus and a tetra-cysteine tag at its C-terminus (CaM-V9A) (VHH)
VHH: DVQLQESGGGSVQAGGSLRLSCAASGDTFSSYSMAWFRQAPGKECELVSNILRDGTTTYAGSVKGRFTISRDDAKNTVYLQMVNLKSEDTARYYCAADSGTQLGYVGAVGLSCLDYVMDYWGKGTQVTVSS
B2: CaM fused to the V9A nanobody at its N-terminus, with a C-terminal AviTag (CaM-V9A), encoded by plas (VHH)
VHH: B1 VHH
B3: CaM fused to the V1K nanobody at its N-terminus, with a C-terminal AviTag (CaM-V1K), encoded by plasmid pK1Cam-V1K (VHH)
VHH: QVQLVESGGALVQPGGSLRLSCAASGFPVNRYSMRWYRQAPGKEREWVAGMSSAGDRSSYEDSVKGRFTISRDDARNTVYLQMNSLKPEDTAVYYCNVNVGFEYWGQGTQVTVSS

How the values were obtained:
[1] = biological target: ACM1 variant of AC fused to GFP (ACM1-GFP), encoded by plasmid pACM1-Gfp (Bordetella pertussis | not stated) (UniProt P0DKX7); test: two-hybrid
[2] = biological target: ACM2 variant of AC fused to GFP (ACM2-GFP), encoded by plasmid pACM2-Gfp (Bordetella pertussis | not stated) (UniProt P0DKX7); test: two-hybrid

Row | Binder | cAMP [1] | ß gal (Rel. Units) [1] | cAMP [2] | ß gal (Rel. Units) [2]
1 | B1 | > 50 nmol/mg | 26 Rel. Units | > 60 nmol/mg | 78 Rel. Units
2 | B2 |  | 4 Rel. Units |  | 57 Rel. Units and 23 Rel. Units
3 | B3 |  |  |  | 74 Rel. Units
